This passage reports Mean fluorescence intensity of cells, OD450 and Max MFI results from patent publication US20250179172A1.

Assay [1] addresses human CD5, full length, on cells (Jurkat, endogenous; CHO-K1-human CD5, transfected) (human) (UniProt P06127). Kind of assay: FACS on CHO-K1-hCD5-2F8 cells.
Assay [2] addresses human CD5 (Arg25-Pro372)-His protein (Acro, Cat. No. CD5-H52H5) (human) (UniProt P06127). Briefly: ELISA on hCD5-His, antibody 10 nM.
Assay [3] addresses human CD5, full length, on cells (Jurkat, endogenous; CHO-K1-human CD5, transfected) (human) (UniProt P06127). Kind of assay: FACS on CHO-K1-human CD5 cells.
The target of assay [4] is human CD5 (Arg25-Pro372)-His protein (Acro, Cat. No. CD5-H52H5) (human) (UniProt P06127). Kind of assay: ELISA on hCD5-His, antibody 0.001 nM. Background: In an ELISA, binding on a coated surface is turned into a signal by an enzyme label.
The target is the same in assay [5]. Kind of assay: ELISA on hCD5-His, antibody 0.1 nM.
Assay [6] has as its target murine CD5-His (Sino Biologicals, Cat. No. 50403-M08H) (murine) (UniProt P13379). Briefly: ELISA on murine CD5-His, antibody 0.001 nM.
Chain of UniProt P13379 (P13379 24-371 limits assumed, stated change not applied): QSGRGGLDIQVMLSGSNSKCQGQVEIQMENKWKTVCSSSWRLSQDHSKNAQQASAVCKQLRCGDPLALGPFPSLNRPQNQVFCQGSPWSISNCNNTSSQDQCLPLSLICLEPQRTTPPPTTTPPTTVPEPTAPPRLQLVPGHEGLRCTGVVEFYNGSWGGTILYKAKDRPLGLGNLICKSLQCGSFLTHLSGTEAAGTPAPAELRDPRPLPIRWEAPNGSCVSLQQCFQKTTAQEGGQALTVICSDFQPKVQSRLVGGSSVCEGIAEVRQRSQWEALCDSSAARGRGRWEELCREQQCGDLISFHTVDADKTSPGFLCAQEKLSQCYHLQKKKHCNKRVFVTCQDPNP
Assay [7] shares this target. Kind of assay: ELISA on murine CD5-His, antibody 0.01 nM.
Assay [8] concerns the target human CD5, full length, on cells (Jurkat, endogenous; CHO-K1-human CD5, transfected) (human) (UniProt P06127). Briefly: FACS on CHO-K1-hCD5-2C6 cells.
Assay [9] has as its target human CD5 (Arg25-Pro372)-His protein (Acro, Cat. No. CD5-H52H5) (human) (UniProt P06127). Kind of assay: ELISA on hCD5-His, antibody 100 nM.
Assay [10] has as its target murine CD5-His (Sino Biologicals, Cat. No. 50403-M08H) (murine) (UniProt P13379). Kind of assay: ELISA on murine CD5-His, antibody '0.000' nM as printed.
The target in assay [11] is monkey CD5, full length, on HEK293T cells (monkey). Briefly: FACS on HEK293T-monkey CD5 cells.
Chain of monkey CD5, full length, on HEK293T cells (monkey) (chain, as listed by the source limits assumed): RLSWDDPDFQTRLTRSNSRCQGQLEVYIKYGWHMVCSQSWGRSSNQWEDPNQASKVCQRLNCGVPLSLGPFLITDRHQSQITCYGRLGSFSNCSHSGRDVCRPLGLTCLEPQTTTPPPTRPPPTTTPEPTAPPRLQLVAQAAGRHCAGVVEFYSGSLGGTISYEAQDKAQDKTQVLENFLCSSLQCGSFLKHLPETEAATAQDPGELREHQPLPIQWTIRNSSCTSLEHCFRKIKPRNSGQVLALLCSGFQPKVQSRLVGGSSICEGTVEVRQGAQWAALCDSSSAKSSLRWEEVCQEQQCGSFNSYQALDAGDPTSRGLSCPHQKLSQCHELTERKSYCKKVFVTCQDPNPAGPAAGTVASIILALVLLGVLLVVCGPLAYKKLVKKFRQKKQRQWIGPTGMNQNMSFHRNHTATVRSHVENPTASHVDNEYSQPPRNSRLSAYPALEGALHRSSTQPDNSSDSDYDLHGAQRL
Assay [12] concerns the target human CD5 (Arg25-Pro372)-His protein (Acro, Cat. No. CD5-H52H5) (human) (UniProt P06127). Briefly: ELISA on hCD5-His, antibody 0.01 nM.
Assay [13] shares this target. Kind of assay: ELISA on hCD5-His, antibody 1 nM.
Assay [14] addresses murine CD5-His (Sino Biologicals, Cat. No. 50403-M08H) (murine) (UniProt P13379). Kind of assay: ELISA on murine CD5-His, antibody 1.00 nM.
For assay [15] the target is unchanged. Kind of assay: ELISA on murine CD5-His, antibody 0.10 nM.
Assay [16] deals with human CD5, full length, on cells (Jurkat, endogenous; CHO-K1-human CD5, transfected) (human) (UniProt P06127). Kind of assay: FACS on CHO-K1-hCD5-2B2 cells.
Assay [17] deals with murine CD5-His (Sino Biologicals, Cat. No. 50403-M08H) (murine) (UniProt P13379). Kind of assay: ELISA on murine CD5-His, antibody 10.00 nM.
In assay [18] the target is human CD5, full length, on cells (Jurkat, endogenous; CHO-K1-human CD5, transfected) (human) (UniProt P06127). Kind of assay: FACS on Jurkat cells.
The target of assay [19] is human CD5 (Arg25-Pro372)-His protein (Acro, Cat. No. CD5-H52H5) (human) (UniProt P06127). Briefly: ELISA on hCD5-His, antibody 0.0001 nM.
Assay [20] has as its target human CD5, full length, on cells (Jurkat, endogenous; CHO-K1-human CD5, transfected) (human) (UniProt P06127). Briefly: FACS on CHO-K1-hCD5-2E2 cells.
For assay [21], the target named is murine CD5-His (Sino Biologicals, Cat. No. 50403-M08H) (murine) (UniProt P13379). Briefly: ELISA on murine CD5-His, antibody 100.00 nM.

For “Anti-HEL-hIgG1 (antibody against hen egg lysozyme, Biointron Cat. No. B117901)”, the Mean fluorescence intensity of cells was 65.9 MFI in assay [1]; 65.9 MFI in [8]; 65.9 MFI in [16]; 97 MFI in assay [18]; 65.9 MFI in assay [20]. Besides, the OD450 came to 0.05 OD450 in [2]; 0.05 OD450 in assay [4]; 0.05 OD450 in [5]; 0.11 OD450 in assay [6]; 0.11 OD450 in assay [7]; 0.06 OD450 in assay [9]. The OD450 in assay [10] was determined as 0.11 OD450; in assay [12] it was 0.05 OD450; in [13] it was 0.05 OD450; in assay [14], 0.11 OD450; in assay [15], 0.11 OD450; in assay [17], 0.12 OD450. In addition, the OD450 in assay [19] came to 0.05 OD450; in [21], 0.12 OD450. Also, the results for the Max MFI in assay [3], in [11] and in assay [18] were 93 MFI, 79 MFI and 62 MFI, respectively.
